Biological target: protein kinase C theta (human, UniProt Q04759 1-706)
Assay: cell-based or functional assay

Chain of protein kinase C theta (Q04759 whole entry): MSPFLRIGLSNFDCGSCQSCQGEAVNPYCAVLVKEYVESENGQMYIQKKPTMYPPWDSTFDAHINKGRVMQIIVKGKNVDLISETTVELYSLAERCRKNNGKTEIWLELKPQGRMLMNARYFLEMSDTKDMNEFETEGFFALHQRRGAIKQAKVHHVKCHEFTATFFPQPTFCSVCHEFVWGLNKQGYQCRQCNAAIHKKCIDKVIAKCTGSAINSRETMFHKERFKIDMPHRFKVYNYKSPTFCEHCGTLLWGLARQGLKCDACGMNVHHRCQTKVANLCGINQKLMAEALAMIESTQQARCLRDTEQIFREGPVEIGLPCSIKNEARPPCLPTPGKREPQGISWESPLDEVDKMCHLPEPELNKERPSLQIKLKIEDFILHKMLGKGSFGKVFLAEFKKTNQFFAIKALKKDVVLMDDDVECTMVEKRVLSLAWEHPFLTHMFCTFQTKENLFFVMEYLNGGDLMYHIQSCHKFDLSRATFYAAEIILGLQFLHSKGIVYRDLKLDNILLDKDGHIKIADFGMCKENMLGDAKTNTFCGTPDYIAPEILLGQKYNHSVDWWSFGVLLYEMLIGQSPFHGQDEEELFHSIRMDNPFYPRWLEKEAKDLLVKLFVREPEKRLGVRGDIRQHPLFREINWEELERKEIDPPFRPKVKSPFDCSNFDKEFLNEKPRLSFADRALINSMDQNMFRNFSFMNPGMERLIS

B1: antennapedia-PKC theta peptide (peptide)
peptide: RQIKIWFQNRRMKWKKMDQNMFRNFSFNMP
  proliferation (3H-thymidine incorporation) of Th1 and Th2 cells stimulated with CD3 and CD28, relative to no inhibitor: 16 % of control levels

Reference: US20040166099A1 (TOLERRX, published 2004)
